Here are results for five substances from publication PMC3087504.

One series has as its target p63 (Homo sapiens) (UniProt Q9H3D4). The conditions noted are these: cited from earlier work.
In series [1] the target is T1, MBP-TAp63αFTL (Mus musculus) (UniProt O88898).
T1 sequence: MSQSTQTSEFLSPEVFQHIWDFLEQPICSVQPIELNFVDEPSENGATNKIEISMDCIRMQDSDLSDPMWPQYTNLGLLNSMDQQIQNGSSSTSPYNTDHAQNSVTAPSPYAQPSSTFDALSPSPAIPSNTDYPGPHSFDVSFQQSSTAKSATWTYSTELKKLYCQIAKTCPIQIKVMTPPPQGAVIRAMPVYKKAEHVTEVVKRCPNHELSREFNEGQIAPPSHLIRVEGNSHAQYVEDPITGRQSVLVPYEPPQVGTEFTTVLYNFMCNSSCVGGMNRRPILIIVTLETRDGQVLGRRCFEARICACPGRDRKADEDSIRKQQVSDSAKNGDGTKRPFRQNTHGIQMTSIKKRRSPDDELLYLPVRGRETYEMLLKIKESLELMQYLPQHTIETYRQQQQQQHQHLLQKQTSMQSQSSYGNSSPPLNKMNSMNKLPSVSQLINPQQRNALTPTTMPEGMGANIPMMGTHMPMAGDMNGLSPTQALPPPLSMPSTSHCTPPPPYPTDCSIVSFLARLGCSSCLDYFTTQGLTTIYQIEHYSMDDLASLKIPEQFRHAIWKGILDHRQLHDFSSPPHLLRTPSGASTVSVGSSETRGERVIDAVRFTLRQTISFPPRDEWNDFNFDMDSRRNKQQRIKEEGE
Kind of series: fluorescence anisotropy. Conditions: 10 mM potassium phosphate pH 7.6, 200 mM NaCl, room temperature, 30 min, 15 nM p21 DNA (300 nM for controls), protein 0.1-15 µM monomer.

In series [2] the test system is T2, MBP-TAp63γ (Mus musculus), O88898-5.
T2 sequence: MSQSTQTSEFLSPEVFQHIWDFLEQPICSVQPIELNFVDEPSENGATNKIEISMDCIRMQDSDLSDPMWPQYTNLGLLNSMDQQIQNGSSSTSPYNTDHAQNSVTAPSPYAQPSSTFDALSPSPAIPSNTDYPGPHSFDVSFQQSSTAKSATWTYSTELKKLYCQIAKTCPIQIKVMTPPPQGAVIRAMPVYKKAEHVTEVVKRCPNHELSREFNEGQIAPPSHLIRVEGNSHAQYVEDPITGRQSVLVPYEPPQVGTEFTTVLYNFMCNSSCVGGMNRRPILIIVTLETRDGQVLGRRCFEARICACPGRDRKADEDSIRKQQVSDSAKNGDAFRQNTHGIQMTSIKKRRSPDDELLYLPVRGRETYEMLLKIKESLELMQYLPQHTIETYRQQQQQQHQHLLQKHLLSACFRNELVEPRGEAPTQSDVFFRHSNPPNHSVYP
Kind of series: fluorescence anisotropy. The conditions noted are these: 10 mM potassium phosphate pH 7.6, 200 mM NaCl, room temperature, 30 min, 15 nM p21 DNA (300 nM for controls), protein 0.1-15 µM monomer.

For series [3], the target named is MBP-TAp63α (mouse). Briefly: SEC-MALS; Superdex 200 5/150 GL, room temperature, 80 μl of purified protein of ~1 mg/ml, 0.3 ml/min. A general note: Size exclusion chromatography separates by hydrodynamic size, large species first.
Series [4] concerns the target MBP-TAp63α (mouse). Kind of series: native MS; LILBID-MS, ~10 μM protein dialyzed against 10 mM potassium phosphate pH 7.6 without NaCl.
Series [5] deals with MBP-TAp63α (mouse). Briefly: SEC; purified proteins from E. coli, 3–15 μM, Superose 6 10/300 GL, 16°C, 10 mM potassium phosphate pH 7.6, 200 mM NaCl; column calibrated with globular standards.
Series [6] addresses MBP-TAp63α (mouse). Briefly: AUC; sedimentation velocity, 45,000 rpm, 4 μM protein, 4°C, 20 mM potassium phosphate pH 7.5, 200 mM NaCl, 2 mM dithiothreitol.
Series [7] concerns the target MBP-TAp63α (mouse). Kind of series: AUC; sedimentation equilibrium, 7000 and 9000 rpm, 1–8 μM monomer, 4°C, 20 mM potassium phosphate pH 7.5, 200 mM NaCl, 2 mM dithiothreitol.
Series [8] addresses His-MBP-ΔNp63α^PPR (mouse). Briefly: SEC; purified proteins from E. coli, 3–15 μM, Superose 6 10/300 GL, 16°C, 10 mM potassium phosphate pH 7.6, 200 mM NaCl; column calibrated with globular standards.
For series [9], the target named is TAp63α (murine, N-terminal His6-tag, from pBH4) (mouse). Briefly: SEC-MALS; Superdex 200 5/150 GL, room temperature, 80 μl of purified protein of ~1 mg/ml, 0.3 ml/min.
The target is the same in series [10]. Briefly: SEC; purified proteins from E. coli, 3–15 μM, Superose 6 10/300 GL, 16°C, 10 mM potassium phosphate pH 7.6, 200 mM NaCl; column calibrated with globular standards.
Setting [11] is: second binding site of two-site fit, suggested unspecific.
The mark [12] stands for this setting: two-site fit, first site, monomer concentration.

p63, sequence (Q9H3D4 whole entry): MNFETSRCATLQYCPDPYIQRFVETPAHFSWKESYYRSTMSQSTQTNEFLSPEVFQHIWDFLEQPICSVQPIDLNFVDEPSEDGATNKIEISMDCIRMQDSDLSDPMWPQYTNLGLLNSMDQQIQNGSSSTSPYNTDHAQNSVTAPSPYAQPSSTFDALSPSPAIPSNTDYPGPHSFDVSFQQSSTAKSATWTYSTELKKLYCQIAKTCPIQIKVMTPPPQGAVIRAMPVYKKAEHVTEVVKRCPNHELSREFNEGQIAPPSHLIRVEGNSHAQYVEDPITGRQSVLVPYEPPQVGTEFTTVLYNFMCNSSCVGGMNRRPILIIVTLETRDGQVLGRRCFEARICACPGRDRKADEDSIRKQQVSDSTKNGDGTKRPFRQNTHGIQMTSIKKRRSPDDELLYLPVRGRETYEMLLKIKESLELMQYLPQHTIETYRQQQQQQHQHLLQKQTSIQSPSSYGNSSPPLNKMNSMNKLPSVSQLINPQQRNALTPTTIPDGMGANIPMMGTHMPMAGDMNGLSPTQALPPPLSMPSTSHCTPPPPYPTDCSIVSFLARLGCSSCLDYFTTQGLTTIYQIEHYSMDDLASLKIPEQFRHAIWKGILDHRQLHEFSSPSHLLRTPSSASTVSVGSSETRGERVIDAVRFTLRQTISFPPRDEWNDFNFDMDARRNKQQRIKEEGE

Broadly, the Kd is the equilibrium constant for the complex coming apart. Turning to p63 (from UniProt Q9H3D4), the Kd with p63 (Homo sapiens) is 0.012 µM.
Turning to “GGCAGGAACATGTCCCAACATGTTGAGCCG (double strand) [p21 promoter response element]”, the Kd in series [1] (setting [11]) is 47.1 µM; in series [1] (setting [12]), 0.38 µM; in [2] (setting [11]), 20.8 µM; in [2] (setting [12]), 0.34 µM.
Broadly, the stoichiometry N is the number of molecules, sites or subunits per partner or assembly. On to MBP-TAp63α (natural protein), for which the stoichiometry N with MBP-TAp63α (mouse) [3], in the series with MBP-TAp63α (mouse) [4], in the series with MBP-TAp63α (mouse) [5], with MBP-TAp63α (mouse) [6] and with MBP-TAp63α (mouse) [7] was 2 throughout.
With His-MBP-ΔNp63α^PPR (natural protein), in series [8], the stoichiometry N came out at 4.
Take “TAp63α (murine, N-terminal His6-tag, from pBH4) (natural protein)”: the stoichiometry N in [9] and in [10] was 2 throughout.
